Laboratory results: the domain aggregation screens of Martell et al. (2025)

test: soluble fraction after stress (log2 fold change); higher = more stays soluble; pooled small domains, quantitative proteomics; details: stress: 50 degC
Method in brief: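 Quantitative proteomics served as the high-throughput read-out for pooled custom libraries of small protein domains. Each was stressed at 50°C. Aggregation propensity is expressed as the base-two log fold change in soluble protein after stress. A higher value means a larger share of the protein remains in solution.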

Sequence	soluble fraction (log2)
HMAAEPDQQLIKPASDPVLRTMKIEELMKMSEQVKIQMSKAAKNFDYLEAARLRDEHFALENLIKLRS	0.108
HMLDFGQEDSEAVSEIILVLGRYWMDFSHKKYPEAEGSALRHKGISHIFTVLKPYLTSATAQLIEQRLQQ	0.00235
HMTQGRVTGDGVNVRSQPNTDSAILTRVSTGKVVELISLKDNWYNVVVNGTKGYIRADYVSPYDG	-0.0101
HMSDTGQELHDALNMARRTLTILEEQAAGYTALTIPARLVLELEEKRKDVVRLETQIRSAATGTPG	-0.202
HMKYNGDRPVFNDDVAWAKWMLENPAKITSHDKENLSSMLKKPEVVMLFEAEDLSVPDLRTLAKE	0.236
HMEELELTIDGEMVGRIDKQLGHHFDQFSRSQIQHWIEDGHVLVNGKQVKPKYKLLVGDHVQIIPEEPQK	0.25
HMQISDSSLIAKTVATVILENPEAVSDYLGGKHSVVRFMVGQIMKKTQGKANPKMATEMLETALNDL	-1.13
HMSNMESLIGREATVIEMIPAEDVGRVKIDGDEWQAVLAREDDNEPRRDIQVGEKVIIVSYDSIILTVKTK	0.0115
HMKSYTYNPNYLSDYNAYRLGIPLEALERLQLHRSTGRYVNSLSDFQSVTGISDSLKHSLSSSLRFPN	-0.876
HMDEYGEVQALQRAGQTSEALARADRHIAAHPNDPQMRFVKANLLSAGGRAGEAETLLVQLTRD	-0.0234
HMGVLSPRQSQILALVAQGLGNREIAERLHIAPTTARDHVQAIMRRLNVNSRAAAAVMGVKLGLI	-0.625
HMKRAVGLDEYRDSIVLKKPEGYTEESYAAYKNAYDALMALDSKETTAEMFANAKSAFEAAQAGLVQKP	0.101
HMETYHIQMKGDPSKGIVGFSQLDMVIDKIKRLETEKGIAPYELEVLDGDTMEKYSGEEFLTMHE	0.0939
HMQADEENPKYPVITDGVIQLEVLESIDKTEEWLVERLAKDGYNNVSEIFIAEYENGNLSIVT	0.148
HMGVKIELNENEQAIFAAMQKQVEAVLPDLRAQFADMSNKAWDNSVKTLTKNNLLKVSKEAEILFIRL	-0.718
HMEDTSTLSIKHKIKELINQESPQAILSDDKLVELLAAQGIKIARRTIAKYRETMNIPTSAERKRQKRPP	0.479
HMNEPMITEVKRINYGSIKEIAKNLDVFKGKNGTVIIDERTNTLILTDLSENIEKMLWSIEITD	-0.896
HMDYLYHNGKEIDQGSIMYKMEDYSDGIFELQSAKYADGTELDEKELEELESTQELIDWVMIDFVS	0.42
HMKQTMIVVMEKDAPQSQIDDMVKRIEGLGLKAHTIVGTQRTVVAAIGEKREDTRESLAGSPGVAEVVPIL	0.181
HMNYDPEEKITQIRTMLEIHSRIEFNEIITPATRRGEIIIIFLALLHMIKRGYIVVRQHRLFGDITIFARD	-0.152
HMEWTVEKQAAATLNAWMRKNSEMTSEKKVAVAAGIGPATVNRIMKAEVSTTIGVLSSLARAFGHEAYEMI	-0.276
HMIIVMRKGATEAQVNDIVERVRAAGFGVHLSQGEERTIIGAIGGDRAVLADLNLEAAPGVERVTPIS	0.0417
HMYDNTVTKYVNSLSVYVRKGPSTSDEIVTSLIKDTDVTVVGENGEWYKIKYKEFEGYIYKNLLSDNKT	-0.254
HMKQISNTDELEAMIQKIIEDNSQQVEKFRSGNEKLFGWFVGQVMKNTQGAANPKVVNEILKKSLK	0.177
HMNNFNVVVGKAIKNSFNTRENYITINAGKVLGIKTDMGVINDKGIVGIVEKTSKDFATIQSVLNIKS	0.00115
HMDPTHDMHFLVKDQVTGQPLPNMPYRLQLDNGQTLTGRTDALGMTEKISGHSPHIASIEVPY	0.18

Sequence	soluble fraction (log2)
HMGVYDLIYLGYGINVEKEELVDQNISIIRRYANIFDPNGDIKGSTNPTYASNTAVLFNEAKFIIDGYD	-3.65
HMSEQLVGTVGHITVGTARTASPAEAKFLDAFEQPHYLLVEPIEPKDIFQQGDKVVLVKKQHHSWLATRYI	-0.267
HMSDAGAIEPTIKEILASNPKAVEEYLAGNIKNINALIGQSMKALHGKADPQTVRNLLAKLLDEM	-0.219
HMSNTVEDLIDDIGTVTKDSKDKIDAARKAYDGLTEDQKKLVPDSVLKTLTDAEAAYAKLTK	-0.0576
HMTESIHVGSKVTINNNAKRWATGQNIYSGVKGKTYTVIQMNGSRLLLDKVISWINKGDVHLPGS	-1.64
HMKFIPPSLEEARAYFVEKGSSEPEAEKFVNHFDSIGWKVGRARTPMKKWKSAANNWIANNREWNQ	-0.407
HMPVNEEFKRLIDKIKYEFSINQAQISERLGVKSTYLSDMINGRVPYNESMQKKIHEVFHIG	-0.0665
HMTNNDIIRRVRYLFNFSDKQVIELFKLANETVSIEHVSGWLKKEEDPTLIEISDRDLAVFLNGLII	0.237
HMYITGAVIRKLREKNNITQLQLAERLRVSDKTISKWETGKGYPDITLLEPIAKTFSVSVTELISGDI	-1.32
HMAPAILTVQVKPDKIREIIGPGGKMIRMIQSETNTRVEVDDSGLVKIAAVSKEEGEAALKMVSDITME	0.134
HMAQASEPMLALIRLKWWEEQINSPVKGDSLPLLSQLNSHISAGYLSRSQVTSLIQRWQDYA	-0.787
HMFYLPEPLTEQELRILGMLLDGRSNPEIAAELFIAVGTAKWHVHNILQKLGVANRAQAIVKAHELGLT	-1.91
HMETGGLAQEAERELALLQEQIAHHEALYRKGTPEISDGAFDELFDRYQELADSLGVPADERIDRA	-0.0378
HMSDPHEELMSRIARDLSIPLTRVVAEMNTIISKEFGGHIRPEGAVVILAKRSGVEFSDLLPALRENILK	-1.05
HMRRSKQERQQAIKTLISNEQIQRQEDLVRKLNEAGWEVTQATISRDITEMQLVKVPLPTGGFAYAVM	0.126
HMKRISDEDLLVMRRIDEVHTYHPTWGYRTITRILRRDDHLLINPKKVRRIMRDMGIYTIYPK	-0.039
HMYAHTPEMEAMNELGLEPPVTLDEIKKTYKTLVKKYHPDHNKEDPEAEEKLKKVNMAYTILKVAYTEFEK	-0.147
HMQSNDTAEIEAVVKEIMAANERVVNDYRSGNTKVVSFFVGQVMKATKGKANPKVVNEVLAKLLK	0.0929
HMSKYGIAYSEVLEILKHIPIEDYNKIPRNEIELFETYADKDFTFNYDSSKTLEEQNVSNITKGIIIL	-0.103
HMKQESSEDLLNEVIDKVIDSNPDEKNRLLDGELKLVSFFMGQVMKETKGKANPGVINGLIKKKFNI	-0.675
HMAGLYSLLLVELPMERLPEDLPAIKAAWLKTGDTEAFKVALQAMSSRGWTIAVPGKHRDTQMTQL	0.35
HMDVNAQAGYDKLQSNQLDGARHDYEQALKTDPNNVDTLLALAAIAQRQGRSADADGYRQRAIDAD	-0.124
HMGKNISEEDMLGYFKKIDLDYDAETKEVIAPTFRHDLFRLADLAEEVARFFGYDNIPTTLPSGEAT	0.0416
HMKPTVKVPNVVNLSLRNAQIQLQNYGLEVGSISYESSRFKNAVLRQSISEGSVVEKGTTINLVISDGL	-0.203
HMVPQEVLPITLIIDGKLIEENLLYAKMTEQVLIQQLDINNIKSIKQILFAGLDSFGNFFYQEKQN	-1.8
HMARRLELEDIPVDEVLFTASRNLVDAIEVMDPSRQAPMIQPWLKQALEWAVGALGFSKEDAVATLTSD	-0.0273

Sequence	soluble fraction (log2)
HMLTPSRVLPYLFEDSFFIDTLSLEKDQVVGFLEYIDERLPPQDLMNKSKEFELIDYLINESEAYLSQ	0.0334
HMRNSSLQTDLELRAYVIDGLNHFWTPEEIAGRWSLAHPDRPVSFATIYRHIKRKLLPGIEPKTHLRRRGK	-2.55
HMVIDFYDPQTKVIHEIKKSSAKEEAHVWQVKYYIYLFEKEEIMGVKGVLEYPLLREIVSVNF	0.187
HMNLSSETLSEMEARIGQMGVVELQDRRAYLLQEQEGTQNPSRLKEIADELSAIQKALVALV	0.1
HMRKYEAVPASVVPAQIQEYVAKSNFPNQYIRKIERNKYTWEIELSNGLEIKFDRQFNVIGFD	-1.49
HMDLPDTLSMPNALKVLEDNGFPTSKAKLYKMTSQEQIPFMKYGNKLVFSRKALIEWAHKQLV	-1.1
HMSLTGFYNLTFKQADRLSVIDEAGEEVYKQAIAMGSTTKTIDLSALNAGVYFIRIYNGEVIAQEKIVLN	-1.25
HMTKNEFLQGLKEELEGRVTHSAIQENIRYYDDYISQEVLKGSTEEEVTESLGGPRIIARTIVDAAYD	-0.0458
HMSFGKKLRSLRQEKKLSQVELSKKLNVTSQALSQYELGKRIPDAEMIIRIADFFDVSVDYLLDRT	0.215
HMDNIEIGNRIREIRIKKNISVFELAYRTKTSQSHIYQIEGGSQNMSIELLFKIADTLETDPNTILGV	-3.78
HMDINEIILKVASEKKTFKTSDVLEALDNNYTKQHVSALISAMVKKGILVKAGSTAKSTYALPENASLL	-0.264
HMFPELSEEAKVIVDALSKENDQQLNVLIANTGMAVGTMQAKLFELEMQGVVKPLAGSVYHLM	-0.0727
HMNIEIIEVQEESTPSEISKIISTESTKIIEDLLNLGVMASLETPLKNQDIEKLLEGYGYIVDIKP	-0.372
HMLQPQMKKFLNYESARNKMRPFGLSTRKEWRLFVDEGNRPADIPGDPYKKYKNKGWISWPHFLGK	-1.58
HMGPELGENEKLIFDIIKKESKMELGILKAQVDLSNKKWDKALKGLATHGLTKVNKTDDGLFIELI	-0.095
HMESYDSEIKEVLDLAGKGRWEEAQTKADALREMAPNNSLVERLHGWVLQAAHQRREQALENDIRE	0.286
HMQENFYMILESEERRVLDVLVADQPESVATFLKLVSPFPNYKIILEHINEKALDFYEETVI	-0.303
HMTYSEEEIERDLYVRGTLYQIGDLVENKIDGTSGEIVRRGPNYVQYSDGENFYKAFLHSIQEV	-0.106
HMENKIIKNAAHATLKVKKDAGIEITTELIREAVILFHRIYSPNDNPNINWERIINELESHYT	-2.77
HMGTAEDYLLPRRAEILSIIRDHEFANFDLIRRRFLAVNERTLRYDLKKLSDLGLIKKLGKTRGVYYRAAK	-1.49
HMEGVNLTVQEAKQMAAIIAPLLKQGQSPYQIVTNHPELGISEKTLYNYIENDVFHEIAGITVMDL	-0.365
HMELDIGKKAIVIEKIDPEAGTGRVRIEGVDWGAKTADSSVIEKGETVVVKAKGAAFVTVAK	0.18
HMDAVDKDGNHMTFKKWSEQLQEAFHALELYDTTRAKQILSELVKFQVDSDITKSLKAIITNIDDMMA	-0.338
HMVLVEEYDTKDSASTFKIGYYARYNTKYGTPSKVGSYADNQRSGIWTFYTDSLKTYFKYNYSTGLIL	0.115
